Earlier results in paper PMC11381810.

Tests used:
[1] = target: syntaxin-1 SNARE motif (Rattus norvegicus) (UniProt P32851); conditions: cited from earlier work
[2] = target: syntaxin-1 dimer SNARE motif (Rattus norvegicus) (UniProt P32851); conditions: cited from earlier work

Sequence of syntaxin-1 dimer SNARE motif (P32851 191-253): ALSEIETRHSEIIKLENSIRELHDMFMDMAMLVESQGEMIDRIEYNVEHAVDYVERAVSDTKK
Sequence of syntaxin-1 SNARE motif (P32851 191-253): as above

| Substance | Kd [1] [nM] | Kd [2] [µM] |
| --- | --- | --- |
| syntaxin-1 SNARE motif (from UniProt P32851) | 1400 | – |
| syntaxin-1 dimer SNARE motif (from UniProt P32851) | – | 12 |
